In patent US20240240209A1, “SYNTHESIS OF ENANTIOPURE CIS-A-IRONE FROM A RENEWABLE CARBON SOURCE” (Agency for Science, Technology and Research, priority 2021, published 2024):
Several values for one entry are separate records, joined by “and”; a condition that tells them apart may be missing. Identical values can stand only once. Entries after “also recorded” stand apart in the source; their conditions may differ.

Experiments:
[1] = Stability of pMT7 (native PAGE, pre-incubation at 28° C.); details: incubating or reacting at 28° C. overnight
Description: (28 C) or 4° C. (4 C). […] All the data shown is an average of replicate reaction.
The steady-state kinetic parameters of pMT7 were determined (Table 3). […] While determining the steady-state kinetics of pMT7, it was noticed that the reaction with purified pMT7 stopped at 6 h before significant conversion had taken place (FIG. 15a). Moreover, while using cell extracts containing pMT7, the reaction reached a plateau after 1-day incubation (FIG. 15b). […] Since pMT7 is an hexamer in solution^10, its oligomeric state before and after the reaction was examined. […] (28 C) overnight as compared to 4° C. […] It was further tested if the enzyme was subject to feedback inhibition, as the cofactor product SAH is a potent inhibitor of methyltransferases^12.

[2] = Cell lysate reaction of pMT enzymes with psi-ionone, irones quantified by HS-SPME-GCMS; type: biochemical; details: for fold change in cis-α-irone produced: AUC vs non-mutated (=1)
Method in brief: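 pMT1 site-saturation mutants were expressed in E. coli BL21(DE3) and lysed, and lysates were incubated 2 days at 28 °C with 0.2 mM SAM and 10 mg/L psi-ionone (plus caryophyllene) in 50 mM Tris pH 7, 10 mM MgCl2. Cis-α-irone was measured by HS-SPME-GCMS peak area and given as fold change over non-mutated enzyme.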

[3] = In vitro biotransformation of psi-ionone to cis-α-irone by cell lysate containing overexpressed pMT10; type: biochemical; details: 28° C., 3 days
Description: All the purified enzyme reactions were done in triplicates.
With the positive effect of mtaD, in vitro biotransformation by using cell lysate containing overexpressed pMT10 and mtaD was explored. To challenge the enzyme, 10 mg/L (0.05 mM), 100 mg/L (0.5 mM) or 1000 mg/L (5 mM) of psi-ionone was supplemented into the reaction, and 6.4 mg/L (˜0.03 mM), 54 mg/L (˜0.26 mM) and 182 mg/L (˜0.88 mM) of cis-α-irone were produced, respectively after incubating the reaction at 28° C. for 3 days (FIG. 3d).

Row | Molecule | stability of enzyme [1] | cis-α-irone production ([2]; higher as compared to pMT1) | fold change in cis-α-irone produced ([2]; pMT6_Y65 mutants) | fold change in cis-α-irone produced ([2]; pMT7_T91 mutants) | improvement of total turnover number (TTN) ([2]; vs pMT1, TTN = cis-α-irone produced / soluble pMT enzyme) | cis-α-irone produced ([3]; 10 mg/L (0.05 mM) psi-ionone) | cis-α-irone produced ([3]; 100 mg/L (0.5 mM) psi-ionone)
1 | pMT7: pMT1 with Y200F S182E L273V L180A A202L Y65F (protein, Modified from pMT1, pMT1 with Y200F S182E L273V L180A A202L Y65F) MPQEARTPQQQVTADEVGDWYDKFGEVYHLTLGESVHCGLWFPPDAPVPQDMELVTMSSQAQDRFTDYLIETLDPKAGQHLLDIGCGTGRTALKAARQRGIAVTGVAVSKEQIAAANRLAAGHGLTERLTFEVADAMRLPYEDESFDCAWAIESLCHMDRAKALGEAWRVLKPGGDLLVAEEVVTEELTEPETALFETLFALNVPPRLGEFFDIVSGAGFHTLSLKDLSANLAMTMNVFALGVYSRRAEFTERFGAEFVDGLLAGLGSAQETVIRKTRFFMATLRKPAV | remained intact as hexamer; also recorded: stable under the reaction temperature | 2,450 fold | 1.4 | 1.0 | 2,000 fold |  | 
2 | pMT10: pMT1 with Y200F S182E L273V L180A A202L Y65F C156A T91P (protein, Modified from pMT1, pMT1 with Y200F S182E L273V L180A A202L Y65F C156A T91P) MPQEARTPQQQVTADEVGDWYDKFGEVYHLTLGESVHCGLWFPPDAPVPQDMELVTMSSQAQDRFTDYLIETLDPKAGQHLLDIGCGTGRPALKAARQRGIAVTGVAVSKEQIAAANRLAAGHGLTERLTFEVADAMRLPYEDESFDCAWAIESLAHMDRAKALGEAWRVLKPGGDLLVAEEVVTEELTEPETALFETLFALNVPPRLGEFFDIVSGAGFHTLSLKDLSANLAMTMNVFALGVYSRRAEFTERFGAEFVDGLLAGLGSAQETVIRKTRFFMATLRKPAV |  |  |  |  |  | 6.4 mg/L and ~0.03 mM | 54 mg/L and ~0.26 mM
